T1: mIgM (Mus musculus, UniProt P01872)
T1 sequence (P01872 1-454): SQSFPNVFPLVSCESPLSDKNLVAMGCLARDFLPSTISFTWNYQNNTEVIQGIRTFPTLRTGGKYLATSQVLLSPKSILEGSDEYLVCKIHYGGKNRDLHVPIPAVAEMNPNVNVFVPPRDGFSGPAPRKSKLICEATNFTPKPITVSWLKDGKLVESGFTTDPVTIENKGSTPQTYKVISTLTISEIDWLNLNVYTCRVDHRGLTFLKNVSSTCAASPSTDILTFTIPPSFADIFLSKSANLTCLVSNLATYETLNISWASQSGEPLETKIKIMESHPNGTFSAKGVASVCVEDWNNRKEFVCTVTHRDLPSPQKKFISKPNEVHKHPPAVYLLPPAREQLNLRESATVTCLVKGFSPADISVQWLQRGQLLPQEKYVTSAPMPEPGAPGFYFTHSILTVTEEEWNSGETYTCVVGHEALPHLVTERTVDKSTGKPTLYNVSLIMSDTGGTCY


How the values were obtained:
[1] = target: T1, mIgM; experiment: IgM binding ELISA (mouse IgM); details: for IgM Binding EC50: mIgM-coated ELISA, half-log dilution 10 μg/ml-0.01 μg/ml
Description: Reactivity of the DVD-Ig proteins with mIgM was determined by enzyme-linked immunosorbent assay (ELISA). Briefly, each well of an Ultra Cruz 96 well microtiter plate (Santa Cruz Biotechnology, Dallas, Tex.) was coated with mIgM at a concentration of 1 μg/ml in 100 μl of PBS. The plate was covered in plastic wrap and incubated overnight at 4° C. Each well of the plate was then washed 3× with 300 μl of PBST. After the final wash, 200 μl of blocking buffer (1% BSA in PBS) was added to each well and the plate incubated at RT for 2 hours. The plate was then washed as above. Rows B-H of the microtiter plate were filled with 100 μl of dilution buffer (1% BSA in PBST). The DVD-Ig proteins were then diluted to […] in dilution buffer and 147 μl of a DVD-Ig protein was added in duplicate to row A of a 96 well plate. For a ½ log dilution, 47 μl was transferred from row A to row B. The pipette tips were replaced with clean tips and 47 μl from row B was transferred to row C. The serial transfers were repeated as above until row G. To assess the binding of the secondary detection reagent to the coated IgM, the final transfer 47 μl was only transferred from G1-G10 to H1-H10 and wells H11 and H12 were left containing 100 μl of dilution buffer. To maintain a 100 μl assay volume, 47 μl was removed from wells H1-H10 and G11-G12 and discarded. After the serial dilution was completed, the plate was incubated for 1-2 hours at RT. The plate was washed as above and then 100 μl of horseradish peroxidase conjugated goat α-hIgG Fc specific, diluted 1:3,000 in dilution buffer, was added to each well. The plate was incubated for 1 hour at RT and then washed 4× as above. The plate was developed by adding 100 μl of 3′,3′,5′,5′-Tetramethylbenzidine (TMB) substrate solution to each well and incubating the plate in the dark for 10-15 minutes. The enzymatic reaction was stopped by adding 100 μl of 1M H2SO4 to each well. The plate was read at 450 nm on an EnVision 2102 multilabel reader (Perkin Elmer, Waltham, Mass.).
DVD-Ig proteins DVD3751-DVD3760 were characterized by IgM binding assay at half-log dilution starting at 10 μg/ml-0.01 μg/ml according to the method of Example 2.5.
IgM binding ELISA: Titrations of the DVD-Ig™ proteins (10 μg/ml to 0.01 μg/ml) were added to ELISA plates coated with murine IgM. Bound antibody was detected with biotinylated anti-human IgG and streptavidin-HRP. EC50 were calculated from the titration curve using Prism6.

[2] = tested on: AM14 TLR9−/− B cells; experiment: [3H]thymidine incorporation, BCR/TLR9 stimulation of AM14 TLR9-/- B cells; format: cell-based, mouse; details: at 5 mg/ml; 24 hours, then 6 hours pulse
Description: The AM14 B cell receptor (BCR) transgenic mouse has been described previously (Sweet et al. (2010) Autoimmun 43(8): 607-18). Briefly, AM14 is a BCR comprising the AM14 heavy chain and the Vk8 light chain that recognizes murine IgG2a (mIgG2a) of the “a” allotype. Between 95-98% of B cells in a mouse positive for the AM14 heavy chain and Vk8 light chain express the AM14 BCR. To generate AM14 B cells that are deficient in TLR9, TLR7 or FcγRIIB, the AM14 and Vk8 genes were bred to the appropriate knock out mice.
Primary murine B cells were purified by positive selection using BD Imag™ CD45R/B220 magnetic particles (BD Biosciences, San Jose, Calif.). Briefly, B cells were cultured in RPMI containing, pencillin-streptomycin, β-mercaptoethanol, and 5% heat-inactivated fetal calf serum (FCS) in 96 well flat bottom plates at a density of 4×10^5 cells/well. For stimulation through the BCR and TLR9, B cells were treated with a titration of 0.3 μg/ml-0.03 μg/ml of PA4 or 5 μg/ml to 0.15 μg/ml of a DVD-Ig protein (DVD3751, DVD3752, DVD3754, DVD3755, DVD3759 and DVD3760), unless otherwise noted. Cells were also treated with 1 μg/ml 1826, an experimental ligand for TLR9, as a control. After 24 hours, the cells were pulsed for 6 hours with [3H]thymidine (Perkin Elmer, Waltham Mass.). Incorporation of [3H]thymidine was quantified via a liquid scintillation beta counter (Trilux 1450 MicroBeta, PerkinElmer) according to standard methods.
DVD-Ig proteins DVD3751-DVD3760 were characterized by ^3H incorporation at […] according to the method of Example 2.6.

Molecule | potency in IgM binding assay ([1]; among DVD3751-DVD3760) | IgM Binding EC50 [1] [µg/mL] | 3H incorporation AM14 TLR9−/− [2] | IgM binding by direct binding ELISA ([1]; Example 6, FIG. 8B)
DVD3759: DVD-Ig: VD1 mIgM (B7.6), SL linker, VD2 DNA(PA4); heavy SEQ ID NO 64, light 65 (antibody) heavy: QVQLKESGPGLVKPSLTLSLTCTVSGFSLNGYGVIWVRQPPGKGLEWMGVIWGNGNTNYNSTLKSRLSISRDTSKSQVFLKMNNLQTEDTAMYFCARSENYYSSPGYFAYWGQGTLVTVSSASTKGPEVQLVESGGGLVKPGGSLKLSCVASGFTFSTYAMSWVRQTPTKRLEWVATISRGGVSTYYPDTVKGRFTISRDNAKNTLYLQMSSLRSEDTAMYYCARPPTIVTTWFAYWGQGTLVTVSS light: NTVMTQSPTSMFISVGDRVTMNCKASQNVGSDVDWYQQKTGQSPKLLISGTSNRYTGVPDRFTGSGSGTDFTLTISNMQAEDLAVYYCLQYNYNPTFGAGTKLELKRTVAAPSVFIFPPDVVMTQTPLSLPVSLGDQASISCRSSQSLVHSNGNTYLHWYLQKPGQSPKLLIYKVSNRFSGVPDRFSGSGSGTDFTLKISRVEAEDLGAYFCSQSTHVPYTFGGPTRLEIKR | highest potency | 0.04116 | (970) | 
DVD3754: DVD-Ig: VD1 DNA(PA4), SL linker, VD2 mIgM (B7.6); heavy SEQ ID NO 54, light 55 (antibody) heavy: EVQLVESGGGLVKPGGSLKLSCVASGFTFSTYAMSWVRQTPTKRLEWVATISRGGVSTYYPDTVKGRFTISRDNAKNTLYLQMSSLRSEDTAMYYCARPPTIVTTWFAYWGQGTLVTVSSASTKGPQVQLKESGPGLVKPSLTLSLTCTVSGFSLNGYGVIWVRQPPGKGLEWMGVIWGNGNTNYNSTLKSRLSISRDTSKSQVFLKMNNLQTEDTAMYFCARSENYYSSPGYFAYWGQGTLVTVSS light: DVVMTQTPLSLPVSLGDQASISCRSSQSLVHSNGNTYLHWYLQKPGQSPKLLIYKVSNRFSGVPDRFSGSGSGTDFTLKISRVEAEDLGAYFCSQSTHVPYTFGGPTRLEIKRTVAAPSVFIFPPNTVMTQSPTSMFISVGDRVTMNCKASQNVGSDVDWYQQKTGQSPKLLISGTSNRYTGVPDRFTGSGSGTDFTLTISNMQAEDLAVYYCLQYNYNPTFGAGTKLELKR |  | 0.1167 | (1597) | intermediate IgM binding affinity
